What was measured:
[1] = molecular target: DFA III hydrolysis enzyme (DFA IIIase) from Arthrobacter aurescens SK8.001 (Arthrobacter aurescens SK8.001); test: SEC; gel filtration by HPLC, TSK G2000SWxl column, 0.1 M phosphate buffer pH 6.7 with 0.05% NaN3 and 0.1 M Na2SO4, 1 mL/min, UV 280 nm; native mass about 145 kDa against 49 kDa subunit by SDS-PAGE; mass markers for calibration
[2] = substrate: OC[C@H]1O[C@@]2(CO[C@]3(CO)O[C@H](CO)[C@@H](O)[C@@H]3O2)[C@@H](O)[C@@H]1O; test: HPLC (refractive index) of inulobiose produced, nonlinear Michaelis-Menten fit; type: biochemical, Paenarthrobacter aurescens; conditions: 50 mM citrate buffer pH 5.5, 55°C, 10 min, DFA III 2.0-50 mM

stoichiometry N [1] | Molecule | Km [2]
3 | DFA III hydrolysis enzyme (DFA IIIase) from Arthrobacter aurescens SK8.001 | 
 | AaDFA IIIase (Paenarthrobacter aurescens) (protein, full length 470 residues (49,879 Da), no signal peptide, C-terminal 6xHis tag kept, pET-22b(+) in E. coli BL21(DE3), homotrimer 145 kDa) MSNSNYYNVTAWPIGDPFTGVGEVINSIIADIKDRQTATDENDGGKPGAVIYLPPGDYRLRTQVVIDVSFLRIEGSGHGFTSSSIRFNAPEAEWPDLHELWPGGSRVMVDLPIIDDERPSDLLPDQESKGAAFYVERSGSPRISSVEFSNFCIDGLHFTPDGSGLPAENSYVNGKTGIYVASANDSFRVNGMGFVYLENALTICKADALSVHDNFIAECGSCIELRGWGQASKITDNLIGAGFKGHSIYAQNHGGLLITANNIFPRGASSIHFEGVTRSSVSNNRLHSFYPGMVVLAEGSSENLVSTNHFLRDHEPWTPFLGVDNGRDDLYGILRISGSNNSVIGNHFSEVVDAQSIWPSGATPVIIRLAEGTGNFVSNNHVVAMDVRSASSDSCFAAQVDALLTTGASDGLAVTAVLVDSTSARNTILDSGNDAQVIADRGANAVRATPTVGFAAAESTQSSQGAGIPR | 30.7 ± 4.3 mM

— PMC4640833, “Identification of a Novel Di-D-Fructofuranose 1,2’:2,3’ Dianhydride (DFA III) Hydrolysis Enzyme from Arthrobacter aurescens SK8.001” (PLoS ONE, 2015)
